B1: KRT15 (parent)
chain: SNFHINVEESVDGQVVSSHKREI
B2: TRIM39 (parent)
chain: YPCVLATEGFTSGRHYWEVEVGDK

Variants of: B1
Assay: protein stability index of a GFP-peptide fusion (GPS, HEK-293T) (PSI 1-6); higher = more stable
Conditions: c terminus: native
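Note: lentivirally expressed fusions sorted by FACS into six bins by GFP to DsRed ratio, PSI derived from sequencing read proportions per bin multiplied by bin number.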

Protein stability index: each site, then its substitutions
V7: E 3.63 | T 3.07 | S 2.12 | I 2.18 | L 1.34 | C 4 | H 2.11
R21: T 4.4 | N 3.89 | G 4.9 | L 4.52 | M 4.91 | Q 4.48 | P 3.5
H19: E 4.9 | V 3.51 | I 2.03 | A 2.75 | C 2.22 | M 2.39
S18: I 2.44 | G 1.54 | R 3.29 | Q 1.27
I23: R 3.09 | K 5.16 | V 4.83 | D 4.89 | W 2.45 | E 2.44 | H 4.13 | N 4.98 | G 3.55
I5: T 3.02 | S 3.06 | F 2.22 | G 2.8 | A 3.14 | Q 3.1 | L 1.71
N2: M 2.04 | Y 1.68 | H 2.79 | L 2.23 | A 1.57 | C 2.13 | P 3.02 | R 1.39
E9: T 2.17 | H 2.1 | S 1.45
E8: V 1.32 | P 2.47 | F 3.87 | H 1.78 | I 2.73 | L 2.02 | K 2.28 | W 2.41 | N 1.9
G13: C 1.98 | R 2.35 | I 2.02 | F 1.86 | A 2.73 | D 2.36 | P 2.19
H4: S 2.16 | C 2.78 | V 1.03
S17: Y 2.27 | D 1.8 | M 1.29
E22: A 4.63 | S 3.52 | F 4.19 | K 4.82 | G 5.28 | Q 4.37 | Y 4.1 | C 4.59 | T 4.46
K20: H 2.51 | I 2.45 | E 1.49 | W 3.4 | N 5.38 | T 3.08 | M 3.15 | A 3.58
S10: T 1.91 | F 1.43 | K 1.5 | R 2.21 | D 2.95 | Q 1.81
V16: G 2.82 | A 2.19 | Q 2.62 | T 2.99
F3: V 2.18 | C 4.67 | M 2.2 | D 3.01 | S 1.91
N6: F 2.11 | S 1.63 | C 1.9
V15: A 1.71 | G 2.67 | H 1.83 | M 4.02 | E 2.23 | S 3.12
S1: F 3.46 | R 2.66 | H 2.44 | Y 1.23 | K 1.69 | D 3.04
V11: W 1.86 | D 2.09 | A 1.94 | Y 1.44
D12: K 1.31 | G 1.45 | M 2.69
Q14: C 2.21 | L 1.65 | T 2.12 | Y 1.72

Variants of: B2
Assay: as above
Conditions: c terminus: a fixed tail appended

Protein stability index of substitutions, site by site:
Y1: A 3.11 | C 2.7 | D 3.45 | E 3.65 | F 1.59 | G 3.34 | H 3.55 | I 2.98 | K 3.15 | L 2.96 | M 3.11 | N 3.76 | P 4.24 | Q 3.71 | R 3.52 | S 3.49 | T 3.78 | V 2.8 | W 2.74
P2: A 1.84 | C 1.94 | D 2.92 | E 2.67 | F 1.78 | G 2.58 | I 1.1 | K 1.99 | L 2.35 | M 1.76 | N 2.21 | Q 2.05 | R 1.86 | S 1.52 | T 2.21 | V 2.4 | Y 1.66

From the supplement of paper PMC10567573
